The record followed here is patent US20210340238A1, “TGFß1 INHIBITORS AND USE THEREOF” (Scholar Rock, Inc., priority 2018, published 2021).

Entries after “also recorded” stand apart in the source; their conditions may differ.

The subject of data set [1] is fibrosis-associated genes (Col1a1, Col3a1, Fn1, Lox, Lox/2, Acta2, Mmp2, Itga11). The data set can be described thus: Unilateral ureteral obstruction (UUO) model of acute kidney fibrosis, qPCR of fibrosis-associated genes. Format: in vivo, mouse. The settings on record: i.p. days −1 and 4, kidney qPCR day 5. On the procedure: Inhibition of acute fibrosis by anti-TGFβ1 antibodies was tested in the unilateral ureteral obstruction (UUO) model of acute kidney fibrosis. In this model, fibrosis is induced in male mice by permanent surgical ligation of the left ureter on study day 0.
Kidneys were collected at the end of study, on day 5 after surgery, and RNA was harvested from these tissues. The degree of fibrosis induction was subsequently assessed by quantitative polymerase chain reaction (qPCR) for a panel of fibrosis-associated genes, including Collagen I (Col1a1), Collagen III (Col3a1), Fibronectin 1 (Fn1), Lysyl Oxidase (Lox), Lysyl Oxidase-like 2 (Lox/2), Smooth muscle actin (Acta2), Matrix metalloprotease (Mmp2), and Integrin alpha 11 (Itga11) (Rolfe, Irvine, Grobbelaar, & Linge, 2007) (Tamaki et al., 1994) (Bansal et al., 2017)(Leaf& Duffield, 2016).

Data set [2] concerns the target proTGFβ1 C4S (Homo sapiens, UniProt P01137, C33S). Briefly: HDX-MS determination of binding regions. Conditions: 1:3 molar ratio of proTGFβ1 to Fab.
Description: Briefly, HDX-MS relies on the exchange of the protein backbone amide hydrogens with deuterium in solution. The backbone amide hydrogens involved in weak hydrogen bonds or located at the surface of the protein may exchange rapidly while those buried in the interior or those involved in stabilizing hydrogen bonds exchange more slowly. Based on the mass difference between hydrogen (1 Da) and deuterium (2 Da), which can be detected for example by mass spectrometry, the H-D exchange can be monitored overtime, Thus, by measuring HDX rates of backbone amide hydrogens, one can obtain information on protein dynamics, conformation and protein-protein interaction such as antibody-antigen-binding.
In HDX-MS, the regions of an antigen that are tightly bound by an antibody are protected from proton exchange, due to protein-protein interaction, while regions that are exposed to solvent can readily undergo proton exchange. Based on this, binding regions within the antigen, which are protected by the specific binding of the antibody, were identified.
Data set [3] has as its target T1, human proTGFβ1 C4S/R249A (Homo sapiens, UniProt P01137, C33S/R278A).
T1 construct: made in house; host or cells: expi293 (kifunensine-treated), co-expressed with Ab2-Fab
Briefly: X-ray crystallography of proTGFβ1:Ab2-Fab:AbX-Fab ternary complex. The class given is binding. The settings on record: numbering after removal of signal sequence. From the text: In this work, an uncleavable human proTGFβ1 C4S/R249A variant was used that spans residues 30-390 based on the full-length sequence of human proTGFβ1 (Uniprot ID P01137). The numbering system that will be used for the rest of this document will designate position 1 as the first amino acid residue after the removal of the signal sequence for proTGFβ isoforms. The C4S mutation renders proTGFβ1 not capable of covalent crosslinking to any known presenting molecules, e.g. LTBPs and GARP, while the R249A renders proTGFβ1 resistant to proprotein convertase/furin protease cleavage, thus maintaining proTGFβ1 in its uncleaved, proprotein form. ProTGFβ1 C4S/R249A was co-expressed with C-terminally 6×-His tagged Ab2-Fab in kifunensine-treated expi293 mammalian expression system to reduce N-linked glycosylation events. The proTGFβ1 C4S/R249A:Ab2-Fab was affinity purified, treated with endoglycosidase H and purified by gel filtration. The proTGFβ1 C4S/R249A:Ab2-Fab complex was then incubated with AbX-Fab to generate the ternary complex. The AbX Fab in this context was used as an auxiliary protein, which acts as a crystallization chaperone to increase the probability of obtaining protein crystals.
Crystallization experiments were performed at room temperature in a sitting drop format. […]

The nature of data set [4]: 4-week rat toxicology study (weekly dosing). Format: in vivo. From the text: Animals were sacrificed and necropsies performed.
Data set [5] concerns CloudmanS91 tumors. Briefly: CloudmanS91 melanoma mouse model, combination with anti-PD-1. Format: in vivo. The settings on record: 10 mg/kg and 30 mg/kg i.p. weekly, in combination with anti-PD1. The method, then: Clone M3 [Cloudman S91 melanoma] (ATCC® CCL-53.1™) cells were obtained from the American Type Culture Collection (ATCC), and were maintained at CR Discovery Services as exponentially growing suspension cultures in Kaighn's modified Ham's F12 Medium supplemented with 2.5% fetal bovine serum, 15% horse serum, 2 mM glutamine, 100 units/mL penicillin G sodium, 100 μg/mL streptomycin sulfate and 25 μg/mL gentamicin. The tumor cells were grown in tissue culture flasks in a humidified incubator at 37° C., in an atmosphere of 5% CO2 and 95% air.
An untreated control was used, data not shown.

Data set [6] in a line: Effective dose and therapeutic window across preclinical models (summary). Format: in vivo.
Description: Effective amount: An “effective amount” (or therapeutically effective amount, or therapeutic dose) is a dosage, concentration, or dosing regimen that achieves statistically significant clinical benefits (e.g., efficacy) in a patient population.
Therapeutic window: The term “therapeutic window” refers to a range of doses/concentrations that produces therapeutic response without causing significant/observable/unacceptable adverse effect (e.g., within adverse effects that are acceptable or tolerable) in subjects. Therapeutic window may be calculated as a ratio between minimum effective concentrations (MEC) to the minimum toxic concentrations (MTC).

Chain of proTGFβ1 C4S (P01137 30-390 C33S): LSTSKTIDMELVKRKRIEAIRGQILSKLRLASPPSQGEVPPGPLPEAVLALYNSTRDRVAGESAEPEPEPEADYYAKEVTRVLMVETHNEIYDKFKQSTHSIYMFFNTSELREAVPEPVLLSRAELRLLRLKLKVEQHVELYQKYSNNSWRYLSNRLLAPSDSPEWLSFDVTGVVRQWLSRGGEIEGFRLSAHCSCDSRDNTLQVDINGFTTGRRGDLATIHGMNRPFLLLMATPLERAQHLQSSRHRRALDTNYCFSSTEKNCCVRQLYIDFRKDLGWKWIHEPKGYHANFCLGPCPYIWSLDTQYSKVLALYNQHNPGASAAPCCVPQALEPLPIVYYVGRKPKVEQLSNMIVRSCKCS
T1 sequence (P01137 30-390 C33S/R278A): as the sequence (P01137 30-390 C33S) above, with R249A counted along it

B1: Ab2: isoform-selective inhibitor of TGFβ1 activation; VH SEQ ID NO: 13, VL SEQ ID NO: 15; human IgG4 (antibody, V domains shown)
VH: EVQLLESGGGLVQPGGSLRLSCAASGFTFADYAMTWVRQAPGKGLEWVSAISGSGAATYFADSVKGRFTISRDNSKNTLYLQMNSLRAEDTAVYYCARVSSGHWDFDYWGQGTLVTVSS
VL: DIQLTQSPSSLSASVGDRVTITCRASQSISSYLNWYQQKPGKAPKLLIYAASNLQSGVPSRFSGSGSGTDFTLTISSLQPEDFATYYCQQTYTVPLTFGGGTKVEIK
modifications: human IgG4 constant regions
On to B1, for which the “Fibrosis-associated gene expression in UUO kidney vs UUO+IgG” value is “trend towards reduced Col3a1 expression, though this effect does not reach statistical significance; also recorded: reduction of both Fn1 and, particularly, Lox/2 (P=0.06), though suppression of neither gene is statistically significant; also recorded: Col1a1 and Lox expression were also reduced” in data set [1] (3 mg/kg/wk); “suppressed fibrotic gene induction by UUO; also recorded: highly significant (P<0.005 vs UUO+IgG) inhibition of both Fn1 and Lox/2; also recorded: all genes examined except Mmp2 showed a statistically significant change in expression” in data set [1] (10 mg/kg/wk). The “Regions of proTGFβ1 protected from H/D exchange upon Fab binding (binding regions 1, 2, 3)” value in data set [2] is listed as “LREAVPE; also recorded: WKWIHEPKGYHANFCLG”. In data set [3], the “Epitope on proTGFβ1 from crystal structure” value was “linear epitope formed by residues 35-43”. Moreover, the Test article-related toxicity result in data set [4] (once weekly for 4 weeks up to 100 mg/kg, Fischer 344 or SD rats) is “free of observable toxicities associated with pan-inhibition of TGFβ; also recorded: no observable test article-related toxcity in either rat strain; also recorded: no toxic effects over background”. In addition, the MTD in data set [4] (rats, suggested from NOAEL of four-week toxicology study) was above 100 mg/kg. Besides, the NOAEL in data set [4] (rats, weekly dose for 4 weeks, highest dose tested) is 100 mg/kg. In data set [5], the “Tumor growth (median tumor progression)” value was “delayed tumor growth”. This molecule had an Effective amount in data set [6] of 3 to 30 mg/kg.
